Here are results for 47 sequences from the NTF2 design screens of Basanta et al. (2020).

The data set can be described thus: protease stability score; higher = more stable; yeast display proteolysis, trypsin and chymotrypsin.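 Further: log10 excess protease needed over predicted unfolded state with 0 meaning unfolded.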
Regarding “DEKRMLKVAKEVAEMVRRGDADRVHKYLKEGGRAEVGDTEINGPDQMKEYVKKVKDQGAHNEYKETEYKGDTMTIKTQAHLGDATVDFEVHYQVKGDKVERVEVRFNKEQLKKFKDS”, the protease stability score was -0.087.

Take “DEKRMVELMRKIFKTIINGNEDEVKKILPPHGEYHYIDKKFEGKEVAEYIIKLVKKMGAEAKVKEQEVKGDTAKATFQYRKGDKTVQTKAEVKYEGDKMKKARVENTDEVRKVVHQG”: the protease stability score is -0.024. As for “DEKRQAKEYVKHFDEVIETNDPDQLNELMDKDVRLDIGETKVSGRDDAKKWAKELVDQIDHVRVNVRKVDVQGDTIKVEVDIQIQYNGRHEQRVLHFTAVLSNGRAKIKRFTVE”, the figure is 0.559; as for “DEKRQQDQAKKIADALSTGDEDQFLQNMDPNAHVRVGDKTFHGRDDVRRMLREVNEHVDEINVHDVSVHNGQVDAVLVWEHNGRKQRKKVVVDRHNGRVHSVEIRDQ”, -0.189. Turning to “DEKRVEELARKLFKYIINGDQEKVKTLLKPNVEYNYIDTQYKGPDAAVTMAQEVKKVGAEVKVREEKVEGNTAEVVFQYRVGDNTMQTKAQVHYEGDKVKEVRVELSEEVKKVVHQG”, the protease stability score was determined as 0.124. As for “DEKRVKELADKIFKDIINGNEEVVRKLGDPDVRYEYLDKKFRGEEAMIFIVQVVKRVGAEVKVERKEVRGDTAKADFRYRKGDTEVKTTAEVIYEGDKLKEARVHLTDEVKKVMTQG”, the figure is -0.006; as for “DEKRVKEMVKKIFEVIKKGDEDKIVKQLMPNVEYHYIDQKFEGEDAARHIVKIVKHIGAEDREKKHEVNGDTMTVVFVYHNGDKTIQTKATVTYEGDVVKKAEVRLDDEVKKLARKG”, 0.088; as for “DEKRVRRFAHKFIEVIERGDEHELRNLMDPDASMRVGDRTIHGRDEAARTIMKFLKRVDNLEVKSYDAQGDKVDIKVRASHDGKEHRITFDVKVHNGHIRHVTVKID”, 2.64.

For “DEKRYEELVKKAFDVIRNGNEEEMRKLGKPDVEYKYADKEFEGEEAMQTMVQVVKRIGAKVEIQHEEVHGDTAHAVFVYKKGNRTAQTTVKVVYEGDKLKKAEVKMTDEVRKVLHDG”, the protease stability score was -0.024. Next, “DEKRYKELADKAFKYIVNGNEEQAIKMLKPNVRYEYVDKEMKGEEAAKEIVQLMQKVGAKVETQEKEVHGDTMRAVFQYHDGDTTVQTTAEVVYKGDKVEKVRVEISEEVKKIVERG”: -0.265. Next, “DEKRYKELFETVFKMVINGDEEDVKKIINPNGKYQYGDKEFEGPEVAHELVRVVKEMGAEVKETRYEVNGDTARADFKYINGDQEVTTTAEAVYKGDKMEEARVHISEEVKKVLHQG”: -0.143; “DEKRYTEIAEKVFKYARNGNEEEMRKDGMPDLKYKYIDKEYEGEDAMRFVVELVKKIGAEDRQEKQEVKGNTAEAVFVYHNGDETVTTKAQVHYEGDKVKEVRVELTDEVKKVIKKG”: 0.135; “DEKTAASQFFRDLRHALRQGDETRIMELADENVEFQIGDKRWHGRESAMELARHVHNRADTVELRIEDLKIDNGQMNADVLITFNHNGRNETQRVNVRARIHNGHVVLVEVHQK”: 1.62. Next, “DEKTAQDTAKEIVKYWEQGDFEKLNKNADKNVRIRYGDKDYSGRDNFQELQKKFREHVDHVEVHSVDVEGDKIRVVIMFVVNGKHMVMEFVVDYHNGHLKSVSVDARNPDQKKRADK”: 0.46; “DEKTERDQARKLIHILEEGDEEKMANLMDENAHIQVGDTTYSGREDVRRFMQSWSERVDRFSVHSITAHNGKIDIDVEFVVNGRKVQMDLRFHVENGRIKTDKFQFRDEDKFKDMQS”: 0.295; “DEKTKAKQLADTLKRLAESGDFVRIAQLFDENARLNYGDKTVHGREQAEDQAKKIHDQIDHMELELKSVSVNENSVQISMEVVWHHNGNHHRFEVVVRIDVDENKNRARNADYQ”: 0.921. Sequence “DEKTLKELADHLIRAIETGNEHQFQKMADPNVKAQYGDSKVRGREDLAEYFKTLVDRADHIQFDHWDAQGNKVTMHFVLRVNGVDVRIVVFIHVTNGKIKHVRVHVTDPQEFRRMQG” had a protease stability score of 0.515. Next, “DEKTVKEVVDKWIKALENNDEEKLQKMLKPNGEAHYADTTYKGKDQIVKYVVEFMRRGVELQVKEQEVKGGRAEYQVDATLGGDTVTLRVVIYVKDGVVDKVEFRDDEKVQKMMKKG”: 0.105; “DEKVHKIFEHYMTAVNRNNPDRAMRQVDPNAHVEVGDRQISGRENLRETVEKLNKHARINYRDFDAELHGDKVNVDLDIRMEYNGKPYSDHVIIIFRAQGDKIKHMTNDIDPDVEHHFEQ”: 0.081; “DEKVKELFKRLLRALHTGDEEQARRLVDPNARIQVGDQRYHGMDEALRQMLHNMQDIEVSQRYIEVDVSGDRVHYRAEVEKTHNGKPEREQYSATVHAHNGKVVQVEMHTDK”: 0.069.

As to “DEKVLKALHDVFRAQEHGDERRAMRNLDPNVKIDVGDEQYHGRESWARRIVQERRDMKVEYHKIDFDDRGDKAKITARYEFTENGDPRHVTIDMEAKATNGKVTTMEQRDDG”, the protease stability score was -0.103. As for “DEKVQDLVQKFVKWLAQGDHKKLADLLDPNARLHIGEFNVHGREQLREAVTRLQTRMHLSVNRVDASASNGKIKASAKFTVKHNGQPDKKHLNFSAVARGEKVKHMEASDDQ”, the figure is -0.287; as for “DENAERVLREIVKALEQGDPDRWKQNVDPNVKFRVGDKDVHGREEIVKTLSSLHDQIRFHVKFEHMDNQGDKIRADARVHQNVDGRPLSSSVVVRLTVHNGRVQEMRMNMDEHYVRDEQK”, 0.068.

With “DENAQKLAREFMHAVREGNPEEIKKQVDPNAKMVVGDKEITGREEMSRQRERELREIEIDYRSVRVDVSGDKAKLDIKFERNDNGKPQQQQQTMTFVHQGDKIKHLVIKQHS”, the protease stability score is -0.373. The sequence “DENAVRVVKELWKALNHGNPDRVQQLADKDARVQVGDKDVHGREKMAKLVDTLKKEIRMDIKVHSISASNGRAKIDFKADEENNGKPQTYEATANVTIHNGKVVSMRVNKDQ” returned a protease stability score of -0.428. Next, “DENDAKELRHFIEVMVRGDPSKLMQLADKDASFHIGEKQVHGREQISSEAEQRNREIKYEIKDLKVTVHGDKARVEAEMVKNHNGKPEHYRYVVTASLRNGKIKEVTVNKRQ”: 0.875. As for “DENDTARKIIKTLLDIMREGDEDKLRDQMDPNVRADVGDKTVHGREHAAKFLAHIVKRADHISITLKSLHNHNGRLRMQAEVRIVHNGRTERVTLEMVFRDHNGKLLIERMKYG”, the figure is 2.51; as for “DENDVKRVLDKLKDNNWEDLVKLMDKDARVEIGDHTIHGRENVHQWMSTIEKQVDHFQIDTMTVKGDTLDANVRMVVNGRKIVFRLKVSLKNGRITRIRFQATDEEQHQQIRQMLR”, 1.29. As for “DENELELYKEVVEAENTGDPDEMKELVDPNVNVQVGDTTLHGMSELVKDAKRRRKQMRVDIKVTSMKAHNGRLEIRLEVVFEVNGRPTSDTITVTVHAHNGKVKEFNYHMDPDREKRQRS”, the figure is 1.03. “DENELLKTFMDIFRRAIKTGDEKLLRTMMDKDVKARVGDKDVHGREEADKEFKKIWDHADHVDIKVKEVTINGDKAHVTMDAKFVVDGKSQKVNIHVKAEVKNGRLKAKHITMG” had a protease stability score of 2.03. “DENEMVQLARKLARVLETNDSDKMREMIPPDASIEIGDRRLHGRESVEHLMKDMHKRIDHLTVDSVNVDNGRVHISARAKHNGRTRRVQFYALIHNGRIHVISFRTK” came in with a protease stability score of 1.34. As for “DENENEEFARKFLENLRTGDPDKVMELVDPNAHVTIGDKEIKGRDQVKRWVEEHKRRADHLDVRDMSVDGEKITARIVVNINGENKYQKVEISIHNGHMTHMSVHDE”, the figure is 1.12. “DENETAKDILKELVDILKNGDEDSFARMFDENARITVGDKTYTGRDEVRKYASQIHRRVDHIDVKLKSVTTNNGRIEVSARFVFQVDGKEDDRIFRLVVRKKGDKWVIERQSLE” yielded a protease stability score of 1.64. Next, “DENHKVRELVDRFKEAYDSNDPDQYQNQFDKDATVTVGDKVFHGDEQAKQMAEDIMRNVDSFSISLKRVRVRGDKVRVSFKVVNNRNGRHKTIHVTAVFVFDNGRLRAKSWHFQ”: 0.73; “DENHLKEVAEEYNKVLNNGDPDKHVEQVDKDVDVKVGDKTYHGREDDKKWMEHFVERVDHLEVKRVEVRGDKVRIDMVVNVNGDNVKMQVNINLHNGRVQEVSVNPDQLEKFKQ”: 0.22; “DENIKRTMSDFLHAVRDGDEDKLFKLADPNARMKYGDKDVHGMEEIVHQIKRLRRDASVDIHIKRVEVDGNRVDIKLEVVVNVNGRPQRYRFEIKVRFHNGRINALENNIDEDQLRKIES”: 1.21.

“DENKEAKHFAQDINDAFQHNDPDHLNRLFDPNARMQIGDKEIRGKEQFKEENRRMVDQVDKVEVHVKEISVHNGRVEFVLIIRENHNGRNTQTSVEVNAEKQNGQIRIRQETEQ” gave a protease stability score of -0.307. As for “DENKENEQFLRNYSKQLKDGNEEQLKRNFDPDAKVRYGDKDVSGREQIQKRIADEARKVDHYEITVKRVEKRGDHVRVEFDVRRHVNGKEESMDVVVIFVKHNGRMVISTVTID”, the figure is 0.036; as for “DENKKAEKVARDYIKNAQTNNSESLKKLADPNVEVVIGDTTYTGTKDFVKFVQEIVRQADHISLNVRSVEVQGDKADVVAEVRVDFNGNQRRQDIRFHAQLQGDKVKLKMIQYK”, 1.06; as for “DENKLKEVANRIVSAVRTNDPDHLANLFDKDDKFQIGEKQFHGHEELRKALEEIHQEVDRLHVKTYELHNGVVKIHVDMKYNGHEIKVVFYFTVHNGRLKYMEVKSQ”, -0.346.

For “DENLERQASRLISALLDNDPDLAVELVDENVKVQIGDKTVHGRETVHRHIETLVHHMRMDLDRFHVEVSGEKAKITLDVRFKINGKPIKDTLDVFFTAHNGKIKSVHFRMPEEHKKQVDR”, the protease stability score was found to be 0.899.

For “DENLLDHMKRLFESGDWDDFSKNADKHVRVHIGEFNYRGREQARTVMNKLQKSADHVEIKRISVHNGQLQMDVTVVVNGETITVRIAAHVSNGRFVELRMSATDSKDKKALQKVQS”, the protease stability score was 1.03. As for “DENLNTLMTQFMRAIQRGDEKRAKQLADPNAEIKYGDRSIHGMDQHADTIRKIRRKMRVDVTEVSHTTDGEQVNVEVTAIFNHNGEPKKRKFQFSATISNGRIKQVEVQDSQ”, the figure is 0.654; as for “DENQVDQLKELMDALQNNDERKANDLADKNARIRIGDKDVSGRSDMNRMVRELHERIRFTIRTVELHHQGDKVIAKVKVEMDHNGKPNDVTQNAEAKYHNGHLQRLFFDTRS”, -0.433. On to “DENREASTFMEQLQRNLRDGDHEEVVRMIDENARLEVGDKRIEGDHNVAHELMNQARRVDHFKMNITHLEVSNGRVKVVFIAKYEVNGRTEVNVYEQVLEIENGRLSLVSRRRK”, for which the protease stability score is 0.545. As to “DENRLRHLAHHMVEVLKTGNEEEIERLMDENVRLTYGDKEVHGRENVRQYIRQLREEIDHFSVQEIDVSGDKVTIVFTFIVNGQRVRAVLKVRFHNGRIVEATIEYTDEDQKRRADS”, the protease stability score was determined as 1.35. As for “DENTEAQRFADNFNKLMNTGDEDTLNKLFDENAKVEVGDHRLHGREKLTKLAETNKQRFDHVKVDVDDIKVDNGTVQMRAVVIVYHNGRHHSVELEVVAQNHNGHARVKRMRVG”, the figure is 0.553.
